Our source for the Kd values is article PMC12208556.

The target in the assay is recombinant full-length thrombospondin-1 (human) (UniProt P07996). Kind of assay: SPR; BIAcore 3000; TSP-1 bound covalently to CM5 chips at 0.1 uM; complement proteins as analytes at 12.3, 37.03, 111.1, 333.3, 1,000 nM in PBS plus 0.05% Tween 20; 1:1 Langmuir binding model; average of 3 repeated measurements.

pKd: −log10 of the molar value.

Sequence of recombinant full-length thrombospondin-1 (human) (P07996 19-1170): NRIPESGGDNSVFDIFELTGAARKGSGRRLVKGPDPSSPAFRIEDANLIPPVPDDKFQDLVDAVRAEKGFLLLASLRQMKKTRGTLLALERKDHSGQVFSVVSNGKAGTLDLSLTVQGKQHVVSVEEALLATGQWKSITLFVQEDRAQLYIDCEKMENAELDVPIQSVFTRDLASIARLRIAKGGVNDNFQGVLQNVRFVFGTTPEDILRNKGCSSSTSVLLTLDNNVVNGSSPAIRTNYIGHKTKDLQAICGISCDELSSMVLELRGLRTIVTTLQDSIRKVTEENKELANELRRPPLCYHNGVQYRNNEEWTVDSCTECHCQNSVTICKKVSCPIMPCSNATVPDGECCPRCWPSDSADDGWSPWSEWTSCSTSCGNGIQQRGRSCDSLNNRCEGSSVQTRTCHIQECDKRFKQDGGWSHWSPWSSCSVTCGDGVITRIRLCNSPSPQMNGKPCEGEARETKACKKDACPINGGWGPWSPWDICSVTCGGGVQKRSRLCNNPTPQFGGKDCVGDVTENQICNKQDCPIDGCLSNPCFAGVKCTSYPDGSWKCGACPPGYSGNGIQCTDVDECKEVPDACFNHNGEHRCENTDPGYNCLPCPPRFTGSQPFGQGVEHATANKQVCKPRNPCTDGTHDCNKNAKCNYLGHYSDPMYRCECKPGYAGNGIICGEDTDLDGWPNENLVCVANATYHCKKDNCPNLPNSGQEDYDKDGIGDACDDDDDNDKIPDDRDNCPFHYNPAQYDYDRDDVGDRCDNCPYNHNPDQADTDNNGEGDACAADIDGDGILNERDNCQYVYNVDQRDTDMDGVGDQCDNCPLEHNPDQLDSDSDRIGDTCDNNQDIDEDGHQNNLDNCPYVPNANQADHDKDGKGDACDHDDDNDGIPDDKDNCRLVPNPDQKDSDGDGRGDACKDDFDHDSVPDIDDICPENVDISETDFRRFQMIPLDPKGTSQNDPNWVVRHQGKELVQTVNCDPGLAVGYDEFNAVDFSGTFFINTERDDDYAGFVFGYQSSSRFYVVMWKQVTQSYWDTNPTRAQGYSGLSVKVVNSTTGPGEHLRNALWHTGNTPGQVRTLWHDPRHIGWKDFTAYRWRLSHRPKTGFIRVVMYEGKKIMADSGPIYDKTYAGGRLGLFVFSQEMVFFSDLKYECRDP

For orientation: pKd means the Kd on a negative log10 scale, so that one unit is a factor of ten. For the substance complement C3 (natural protein), the pKd was 6.90. The same measure for complement C5 (natural protein): 7.33.
